Data: patent US20140275493A1 (Bayer, published 2014)

Biological target: T1, Human TFPI (tissue factor pathway inhibitor) (human, UniProt P10646 29-304, limits assumed)
T1 construct: Coated on Maxisorb plates for the ELISA
T1 sequence (looked up): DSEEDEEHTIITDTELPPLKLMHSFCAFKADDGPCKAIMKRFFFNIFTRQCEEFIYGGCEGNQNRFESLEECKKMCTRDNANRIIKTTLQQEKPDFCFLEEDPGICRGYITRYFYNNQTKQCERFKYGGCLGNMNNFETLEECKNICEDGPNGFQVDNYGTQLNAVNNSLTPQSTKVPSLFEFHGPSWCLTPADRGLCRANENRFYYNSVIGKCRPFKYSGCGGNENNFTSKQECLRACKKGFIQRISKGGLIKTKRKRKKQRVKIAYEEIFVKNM
Test: pH 6.0 TFPI dissociation ELISA, ratio of signals
Method: Human TFPI, 1 μg/ml, was used to coat Maxisorb™ microtiter plates. Expression media, 100 μl, from each member of the His scan library, was added to two wells on the plate, in a pair wise fashion. The plate was incubated on a shaker at room temperature for 1 hr. The plate was washed 3× with PBST. PBS (pH 7.0) was added to one well of the pair, 100 mM pH6.0 Citrate buffer was added to the second well of the same pair. The plate was incubated at 37° C. with shaking for one hr. The plate was washed 3× with PBST and developed using amplex red. A pH 7.0/pH 6.0 ratio was established to rank the sensitive muteins. The ratio for wild type 2A8-g200 Fab was 1.0.

B1: 2A8-g200 Fab VL-Y31H (Fab, V domains shown)
VH: EVQLVESGGGLVQPGGSLRLSCAASGFTFSSYGMDWVRQAPGKGLEWVSSIRGSRGSTYYADSVKGRFTISRDNSKNTLYLQMNSLRAEDTAVYYCARLYRYWFDYWGQGTLVTVSS
VL: SYELTQPPSVSVSPGQTARITCSGDNLPKYHAHWYQQKPGQAPVVVIFYDVNRPSGIPERFSGSNSGNTATLTISGTQAMDEADYYCQAWWSSTPVFGGGTKLTVLG
**Q.** B1 was tested. Which “Ratio pH 7.0/pH 6.0” value did it give?
**A.** 6.64
